{"source": "patent US12201679B2", "about": "“Epitope-targeted peptide immunostimulants” (priority 2019, dated 2025)", "key": {"[1]": {"system": "K. pneumoniae (strains BAA 1705 & 2146)", "experiment": "Whole-cell ELISA, biotinylated PCC, multidrug-resistant K. pneumoniae", "assay_type": "cell-based, Klebsiella pneumoniae", "details": "whole-cell ELISA, FIG. 5C", "experimental": "Detection of the binding of biotinylated PCCs to bacterial surface was performed as follows. 10^8 bacteria from a culture grown overnight were used for each test. […] After washing thrice with PBS to remove unbound PCCs, bacteria were incubated with Streptavidin-HRP (1:1000) for 1 h at 37° C. Bacteria were washed thoroughly and the TMB reagent was added until visible coloration was observed. The reaction was quenched using 2N H2SO4 and absorbance was measured at 450 nm."}, "[2]": {"experiment": "Isocratic point, elution from C18 prep-scale column", "assay_type": "physicochemical", "experimental": "PCC compounds were purified on a Waters Autopurification system, which isolated compounds based on MS peaks corresponding to protonated [M+1H]^+ and [M+2H]^2+, and/or sodium adducts [M+Na]^+ and [M+2Na]^2+. The isocratic points of PCCs were determined based on the elution of the compound from a C18 prep-scale column. Synthetic epitopes were either purified on the Waters Autopurification System, or by semi-preparative HPLC and then using matrix-assisted laser desorption/ionization mass spectroscopy to identify fractions with the desired m/z ratio. The resulting peptides were lyophilized, the yield determined by mass difference or UV-visible absorbance, and resuspended at a concentration of up to 10 mM peptide in DMSO. Peptides were stored at −80° C. before thawing for each use."}, "[3]": {"molecular_target": "full-length recombinant MrkA protein (Klebsiella pneumoniae, UniProt P12267)", "sequence (P12267 23-202)": "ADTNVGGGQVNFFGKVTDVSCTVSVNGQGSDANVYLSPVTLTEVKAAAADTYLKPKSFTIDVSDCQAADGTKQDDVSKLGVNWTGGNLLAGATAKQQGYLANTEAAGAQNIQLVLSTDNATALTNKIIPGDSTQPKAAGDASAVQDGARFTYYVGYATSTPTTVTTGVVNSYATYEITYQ", "assay_type": "binding", "details": "ratio of ELISA signals, FIG. 4B", "from_the_text": "HPraGly is present before X1 in each peptide and Az4 follows X5 in each peptide."}, "[4]": {"system": "K. pneumoniae cells (strain BAA 1705)", "experiment": "Gentamicin protection assay: phagocytosis and opsonophagocytic killing (OPK) by macrophages", "assay_type": "cell-based, Klebsiella pneumoniae", "details": "1 h, FIG. 7B", "experimental": "It also tested whether DNP-conjugated EPIs could promote the opsonophagocytic killing (OPK) of K. pneumoniae by macrophages. This was tested by using an OPK assay. Briefly, K. pneumoniae cells were treated with EPI and then anti-DNP antibody before being exposed to macrophages for either 6 or 24 hours. During this incubation period, macrophages that recognize K. pneumoniae cells will phagocytose them, and phagocytosed bacteria will remain viable for up to 6 hours, but within 24 hours are rendered inviable by OPK. Thus, macrophages were isolated after 6 and 24 hours of incubation with K. pneumoniae, lysed them, and plated and grew the lysate, which yielded bacterial colonies that reflect the phagocytosis (at 6 hrs) or OPK (at 24 hrs) of bacteria.\nGiven that cy(LLFFF)-DNP (SEQ ID NO:5) recruits antibodies to K. pneumoniae surfaces, it was expected that K. pneumoniae opsonized in this manner would be more susceptible to phagocytosis by macrophages. AR-PCC-driven phagocytosis and OPK were quantified by a gentamicin protection assay, as depicted in FIG. 7A. For this assay, K. pneumoniae cells (strain BAA 1705) were treated with cy(LLFFF)-DNP (SEQ ID NO:5), opsonized by anti-DNP antibodies, and then incubated with murine bone-marrow-derived macrophages (BMDMs). BMDMs were subsequently exposed to a solution containing gentamicin, to which K. pneumoniae strain BAA 1705 is susceptible, to kill any extracellular bacteria. Phagocytosed bacteria remain viable inside BMDMs for at least 1 h, yet are rendered inviable after 24 h by OPK (FIG. 13). Macrophages harvested at 1 h and 24 h were lysed and plated to generate bacterial colonies, which were enumerated to quantify phagocytosis and OPK.\nKlebsiella pneumoniae BAA1705 was treated with DNP-PCCs followed by incubation with anti-DNP antibody, as described above in the “Cell-Based ELISAs” section. These opsonized bacteria were then used to infect BMDMs at a multiplicity of infection of 50 for 0.5 h at 37° C. Bacteria were then washed by using RPMI 1640 Media and BMDMs were left in cell culture medium containing gentamicin (100 μg/ml). After 1 h and 24 h BMDMs were washed to remove gentamicin and intracellular bacteria were harvested by lysing BMDMs in RPMI media containing 0.2% Triton X 100. Bacterial CFUs were enumerated by plating onto LB agar. Bacterial counts at 1 h indicated the degree of opsonization while those at 24 h served as a measure of microbicidal activity of macrophages. For these measurements, anti-MrkA antibody and K. pneumoniae antiserum were used at dilutions of 5 μg/mL each."}, "MrkA protein": {"molecular_target": "MrkA protein (Klebsiella pneumoniae, UniProt P12267)", "sequence (P12267 23-202)": "as above", "experiment": "Sandwich ELISA, MrkA binding in mouse sera", "details": "MrkA 250 nM in 10 and 100% mouse sera", "from_the_text": "By comparison, the addition of polyarginine tags reduced the IP to near 40% without substantial loss in MrkA avidity (three leftmost data points in FIG. 4B)."}}, "note": "“Also recorded” adds a separate entry of the source. Ends that are not written are not given here.", "data": [{"substance": "cy(LLFFF)+R6 (LLFFFRRRRRR; also: cyclic over residues 1-5, ring closure not given here)", "values": [{"measurement": "binding selectivity towards MrkA-expressing K. pneumoniae cells versus E. coli and S. typhimurium", "setting": "[1]", "result": "similarly high selectivity"}, {"measurement": "isocratic point (IP)", "setting": "[2]", "result": "~40", "unit": "%"}, {"measurement": "reduction (improvement) in IP versus cy(LLFFF)", "setting": "[2]", "result": "~35", "unit": "%"}, {"measurement": "stronger affinity to MrkA over cy(LLFFF)", "setting": "[3]", "result": 22, "unit": "%"}, {"measurement": "phagocytosis at 1 h, DNP-tagged AR-PCC plus anti-DNP (words)", "setting": "[4]", "result": "also enhanced phagocytosis"}, {"measurement": "phagocytosis at 1 h, DNP-tagged AR-PCC plus anti-DNP (words)", "setting": "[4]; listed as cy(LLFFF)-R6", "result": "comparable to that of cy(LLFFF)-DNP"}, {"measurement": "binding to MrkA protein in mouse sera", "setting": "MrkA protein", "result": "binds MrkA protein in the context of sera; also recorded: bound MrkA protein in solutions of 10 and 100% mouse sera"}]}]}
